Experimental data from paper PMC13602928.

Experiments:
[1] = target: stripped Anabaena flos-aquae (Ana) gas vesicles (GV shell, native GvpC removed) (Anabaena flos-aquae) (UniProt P10397)
[2] = target: stripped Anabaena flos-aquae (Ana) gas vesicles (GV shell, native GvpC removed) (Anabaena flos-aquae) (UniProt P10397); remark: listed apart in the source

Sequence of UniProt P10397 (P10397 whole entry): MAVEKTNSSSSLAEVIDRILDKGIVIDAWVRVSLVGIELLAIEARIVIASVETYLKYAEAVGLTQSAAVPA

With phosphorylated UReKA1 GvpC (pThr60) as the substance, how does the time course of the nonlinear ultrasound signal of UReKA1 GVs after PKA addition; time to maximal contrast (signal first detectable after 2-3 h) [1] read?
The time course of the nonlinear ultrasound signal of UReKA1 GVs after PKA addition; time to maximal contrast (signal first detectable after 2-3 h) was 8 h.

And the midpoint collapse pressure of UReKA1 GVs (pressurized absorbance spectroscopy), after PKA phosphorylation [2]?
The midpoint collapse pressure of UReKA1 GVs (pressurized absorbance spectroscopy), after PKA phosphorylation was 227 kPa.

What about the nonlinear (xAM) ultrasound signal of purified UReKA1 GVs at 350 kPa, with PKA against without PKA [2] of the same substance?
Its nonlinear (xAM) ultrasound signal of purified UReKA1 GVs at 350 kPa, with PKA against without PKA is 4.5 fold.

Which results are given for phosphorylated UReKA2 GvpC (pThr81)?
time course of the nonlinear ultrasound signal of UReKA2 GVs after PKA addition; time to maximal contrast (signal first detectable after 2-3 h) [1]: 12 h; midpoint collapse pressure of UReKA2 GVs (pressurized absorbance spectroscopy), after PKA phosphorylation [2]: 283 kPa; nonlinear (xAM) ultrasound signal of purified UReKA2 GVs at 489 kPa, with PKA against without PKA [2]: 12.9 fold
